From US20090318673A1 (NEC SOFT, published 2009)

Molecular target: the molecule itself
Assay: X-ray crystal structure, 1.9 A, space group C2221
Description: Programs, MOSFLM and SCALA (CCP4) were used in the data processing of the detected diffraction pattern and intensity data.

B1: GFP-like fluorescent protein from Chiridius poppei, CpYGFP (recombinant, wild type) (other)
chain: MTTFKIESRIHGNLNGEKFELVGGGVGEEGRLEIEMKTKDKPLAFSPFLLSHCMGYGFYHFASFPKGTKNIYLHAATNGGYTNTRKEIYEDGGILEVNFRYTYEFNKIIGDVECIGHGFPSQSPIFKDTIVKSCPTVDLMLPMSGNIIASSYARAFQLKDGSFYTAEVKNNIDFKNPIHESFSKSGPMFTHRRVEETHTKENLAMVEYQQVFNSAPRDM
modifications: G55-Y56-G57 cyclised and oxidised to the p-hydroxybenzylideneimidazolinone fluorescent moiety
notes: Expressed in E. coli from pET101-NFP, purified and crystallised; In the crystal (space group C2221, PDB 2DD7) it is seen as a dimer; also called recombinant CpYGFP; wild-type CpYGFP
B1: binds.
